Laboratory results: article PMC10716122

B1: Cyclic GMP-AMP synthase (cGAS), wild type, expressed in human cells [human] / TRIM41, HA-tagged [human] (parent)
chain 1: MQPWHGKAMQRASEAGATAPKASARNARGAPMDPTESPAAPEAALPKAGKFGPARKSGSRQKKSAPDTQERPPVRATGARAKKAPQRAQDTQPSDATSAPGAEGLEPPAAREPALSRAGSCRQRGARCSTKPRPPPGPWDVPSPGLPVSAPILVRRDAAPGASKLRAVLEKLKLSRDDISTAAGMVKGVVDHLLLRLKCDSAFRGVGLLNTGSYYEHVKISAPNEFDVMFKLEVPRIQLEEYSNTRAYYFVKFKRNPKENPLSQFLEGEILSASKMLSKFRKIIKEEINDIKDTDVIMKRKRGGSPAVTLLISEKISVDITLALESKSSWPASTQEGLRIQNWLSAKVRKQLRLKPFYLVPKHAKEGNGFQEETWRLSFSHIEKEILNNHGKSKTCCENKEEKCCRKDCLKLMKYLLEQLKERFKDKKHLDKFSSYHVKTAFFHVCTQNPQDSQWDRKDLGLCFDNCVTYFLQCLRTEKLENYFIPEFNLFSSNLIDKRSKEFLTKQIEYERNNEFPVFDEF
chain 2: MAAVAMTPNPVQTLQEEAVCAICLDYFTDPVSIGCGHNFCRVCVTQLWGGEDEEDRDELDREEEEEDGEEEEVEAVGAGAGWDTPMRDEDYEGDMEEEVEEEEEGVFWTSGMSRSSWDNMDYVWEEEDEEEDLDYYLGDMEEEDLRGEDEEDEEEVLEEVEEEDLDPVTPLPPPPAPRRCFTCPQCRKSFPRRSFRPNLQLANMVQVIRQMHPTPGRGSRVTDQGICPKHQEALKLFCEVDEEAICVVCRESRSHKQHSVVPLEEVVQEYKAKLQGHVEPLRKHLEAVQKMKAKEERRVTELKSQMKSELAAVASEFGRLTRFLAEEQAGLERRLREMHEAQLGRAGAAASRLAEQAAQLSRLLAEAQERSQQGGLRLLQDIKETFNRCEEVQLQPPEVWSPDPCQPHSHDFLTDAIVRKMSRMFCQAARVDLTLDPDTAHPALMLSPDRRGVRLAERRQEVADHPKRFSADCCVLGAQGFRSGRHYWEVEVGGRRGWAVGAARESTHHKEKVGPGGSSVGSGDASSSRHHHRRRRLHLPQQPLLQREVWCVGTNGKRYQAQSSTEQTLLSPSEKPRRFGVYLDYEAGRLGFYNAETLAHVHTFSAAFLGERVFPFFRVLSKGTRIKLCP

Variants of: B1
Test: co-IP (IP: GFP, blot cGAS-HA), band intensity printed under blot
Settings: with TRIM41, HA-tagged [human]; HEK293T cells; TRIM41-GFP co-expressed; 100 μg/mL etoposide for 4 h; parent: 1

ratio to parent | Variant
0.68 | chain 1 MQPWHGKAMQRASEAGATAPKASARNARGAPMDPTESPAAPEAALPKAGKFGPARKSGSRQKKSAPDTQERPPVRATGARAKKAPQRAQDTQPSDATSAPGAEGLEPPAAREPALSRAGACRQRGARCSTKPRPPPGPWDVPSPGLPVSAPILVRRDAAPGASKLRAVLEKLKLSRDDISTAAGMVKGVVDHLLLRLKCDSAFRGVGLLNTGSYYEHVKISAPNEFDVMFKLEVPRIQLEEYSNTRAYYFVKFKRNPKENPLSQFLEGEILSASKMLSKFRKIIKEEINDIKDTDVIMKRKRGGSPAVTLLISEKISVDITLALESKSSWPASTQEGLRIQNWLSAKVRKQLRLKPFYLVPKHAKEGNGFQEETWRLSFSHIEKEILNNHGKSKTCCENKEEKCCRKDCLKLMKYLLEQLKERFKDKKHLDKFSSYHVKTAFFHVCTQNPQDSQWDRKDLGLCFDNCVTYFLQCLRTEKLENYFIPEFNLFSSNLIDKRSKEFLTKQIEYERNNEFPVFDEF [chain 1 S120A]
0.51 | chain 1 S305A
